Tests used:
Experiment in all cases: BLI; reverse outlay: full-length IgG-like constructs (50 ug/mL) loaded on anti-human Fc tips; VEGF in 2-fold dilutions from 500 nM; 25 C, PBS with Kinetic Buffer
[1] = target: TRA-CH3_(ZWHY)/CT6_(ZWLY)
[2] = target: TRA-CT6 mAb^2
[3] = target: TRA-CT6ZW-FT
[4] = target: TRA-CT6ZWY
[5] = target: TRA-CT6_(ZWHY)/CH3_(ZWLY)

VEGF isomer 109 with N75Q mutation (ligand)
Kd [1]: 6.2 nM
Kd [2]: 2.78 nM
Kd [3]: 1.48 nM
Kd [4]: 16.6 nM
Kd [5]: 16.7 nM

Source: publication PMC7920882
